Values quoted from earlier work as cited in patent US7419780B2, “Methods and assays for screening protein targets” (The Trustees of Columbia University in the City of New York, priority 2000, dated 2008).

Settings: substrate nitrocefin

B1: E. cloacae P99 wt: wild-type E. cloacae P99 cephase (protein, UniProt P05364 21-381, looked up)
Beta-lactamase: TPVSEKQLAEVVANTITPLMKAQSVPGMAVAVIYQGKPHYYTFGKADIAANKPVTPQTLFELGSISKTFTGVLGGDAIARGEISLDDAVTRYWPQLTGKQWQGIRMLDLATYTAGGLPLQVPDEVTDNASLLRFYQNWQPQWKPGTTRLYANASIGLFGALAVKPSGMPYEQAMTTRVLKPLKLDHTWINVPKAEEAHYAWGYRDGKAVRVSPGMLDAQAYGVKTNVQDMANWVMANMAPENVADASLKQGIALAQSRYWRIGSMYQGLGWEMLNWPVEANTVVEGSDSKVALAPLPVAEVNPPAPPVKASWVHKTGSTGGFGSYVAFIPEKQIGIVMLANTSYPNPARVEAAYHILEALQ
  % WT (percentage of wild-type kcat/Km as calculated in that experiment): 100%
  Km: 25 ± 1 µM
  kcat: 780 ± 30 s⁻¹
